Results from the supplement of paper PMC7877785.
± gives the uncertainty stated by the source.

Test: self-splicing fitness, log relative to wild type (ln ratio); higher = more splicing; Tetrahymena group I intron in knt gene, E. coli kanamycin selection, DiMSum; sequences stand for … in CUCUCU…GGAGGGAAAAGUUAUCAGGCAUGCACCUGGUAGCUAGUCUUUAAACCAAUAGAUUGCAUCGGUUUAAAAGGCAAGACCGUCAAAUUGCGGGAAAGGGGUCAACAGCCGUUCAGUACCAAGUCUCAGGGGAAACUUUGAGAUGGCCUUGCAAAGGGUAUGGUAAUAAGCUGACGGACAUGGUCCUAACCACGCAGCCAAGUCCUAAGUCAACAGAUCUUCUGUUGAUAUGGAUGCAGUUCACAGACUAAAUGUCGGUCGGGGAAGAUGUAUUCUUCUCAUAAGAUAUAGUCGGACCUCUCCUUAAUGGGAGCUAGCGGAUGAAGUGAUGCAACACUGGAGCCGCUGGGAACUAAUUUGUAUGCGAAAGUAUAUUGAUUAGUUUUGGAGUACUCGUGGUCG
Method in brief: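 DiMSum derived fitness as the error-weighted combination of fold changes across replicates, kanamycin versus no kanamycin, normalised to wild type. E. coli BL21(DE3) held the library, which randomised all eight P1ex-region intron nucleotides within the knt kanamycin-resistance gene on pET-22b(+). Six replicate transformations grew overnight at 37°C or 30°C on LB agar with or without 25 μg/mL kanamycin, also containing 100 μg/mL carbenicillin, 50 μM IPTG and 0.2% rhamnose, and pooled colonies were amplicon-sequenced on an Illumina HiSeq 2500.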

Row | Sequence | self-splicing fitness (ln) (30 °C) | self-splicing fitness (ln) (37 °C)
1 | CCACAGCAAUAUUACGUUUG | -1.7 ± 0.054 | -0.24 ± 0.069
2 | CUUUAGCAAUAUUACGGGUU | -3.22 ± 0.34 | -0.807 ± 0.19
3 | CGUAAGCAAUAUUACGUUUG | -1.2 ± 0.08 | -0.438 ± 0.1
4 | AUGAAGCAAUAUUACGUAAC | -2.45 ± 0.18 | 0.328 ± 0.16
5 | CUCCAGCAAUAUUACGAACU | -2.92 ± 0.33 | -1.12 ± 0.29
6 | UAGAAGCAAUAUUACGCCGU | -2.41 ± 0.23 | -2.68 ± 0.36
7 | GGGCAGCAAUAUUACGCUUU | -0.861 ± 0.057 | 0.0207 ± 0.075
8 | AGUCAGCAAUAUUACGUACA | -0.657 ± 0.074 | 0.284 ± 0.11
9 | UCACAGCAAUAUUACGCCUU | -3.82 ± 0.37 | -2.71 ± 0.41
10 | AUUGAGCAAUAUUACGAUGU | -2.26 ± 0.11 | -1.41 ± 0.16
11 | GUAGAGCAAUAUUACGUCCG | -2.26 ± 0.27 | -2.49 ± 0.49
12 | AGCCAGCAAUAUUACGGCGG | -2 ± 0.1 | -1.1 ± 0.15
13 | AACAAGCAAUAUUACGGCUU | -1.14 ± 0.081 | -0.539 ± 0.084
14 | AUGUAGCAAUAUUACGAGUU | -1.68 ± 0.11 | -0.948 ± 0.11
15 | GAAAAGCAAUAUUACGCAAG | -2.02 ± 0.11 | -1.46 ± 0.14
16 | ACGCAGCAAUAUUACGGCAA | -0.804 ± 0.078 | -0.421 ± 0.084
17 | AACAAGCAAUAUUACGGGGU | -3.36 ± 0.11 | -2.28 ± 0.13
18 | GGAAAGCAAUAUUACGCGGA | -1.96 ± 0.13 | -0.353 ± 0.1
19 | AAAUAGCAAUAUUACGUGGC | -4.1 ± 0.28 | -1.43 ± 0.2
20 | ACGCAGCAAUAUUACGCCGU | -3.33 ± 0.2 | -2.74 ± 0.27
21 | GGGCAGCAAUAUUACGCCGA | -0.407 ± 0.078 | 0.467 ± 0.1

Row | Sequence | self-splicing fitness (ln) (30 °C) | self-splicing fitness (ln) (37 °C)
22 | AACUAGCAAUAUUACGAGCC | -0.792 ± 0.47 | -1.17 ± 0.34
23 | AAGCAGCAAUAUUACGGAGU | -3.69 ± 0.13 | -1.15 ± 0.1
24 | UUGCAGCAAUAUUACGAAUC | – | -2.06 ± 0.47
25 | CUAGAGCAAUAUUACGAAUA | -3.49 ± 0.48 | -1.86 ± 0.34
26 | UUCGAGCAAUAUUACGAACA | -2.9 ± 0.28 | -1.73 ± 0.18
27 | GUGUAGCAAUAUUACGUGAA | -1.94 ± 0.19 | -0.954 ± 0.2
28 | UAUGAGCAAUAUUACGGUAC | -4.01 ± 0.43 | -2.66 ± 0.48
29 | GUAUAGCAAUAUUACGCUCA | – | -0.615 ± 0.36
30 | GUUCAGCAAUAUUACGGUUC | -1.66 ± 0.14 | 0.019 ± 0.18
31 | ACCGAGCAAUAUUACGGCUA | -0.869 ± 0.096 | -0.288 ± 0.091
32 | GUGUAGCAAUAUUACGAUUA | -1.58 ± 0.27 | 0.0491 ± 0.2
33 | GUCAAGCAAUAUUACGGGUC | -3.45 ± 0.19 | -2.16 ± 0.18
34 | GGACAGCAAUAUUACGAAAA | -1.42 ± 0.19 | -1.36 ± 0.15
35 | CGACAGCAAUAUUACGAAGG | -1.94 ± 0.092 | -0.848 ± 0.13
36 | GUUAAGCAAUAUUACGAAGG | -2.17 ± 0.18 | -1.87 ± 0.28
37 | AAUUAGCAAUAUUACGGACG | -1.29 ± 0.16 | 0.266 ± 0.12
38 | UAUAAGCAAUAUUACGCGCU | -0.854 ± 0.18 | 0.225 ± 0.23
39 | ACUCAGCAAUAUUACGAAAU | -1.11 ± 0.091 | 0.0403 ± 0.099
40 | AAGGAGCAAUAUUACGUAGA | -3.27 ± 0.26 | -1.46 ± 0.18
41 | UGCCAGCAAUAUUACGUAAA | -1.24 ± 0.093 | -0.956 ± 0.12
42 | CAAAAGCAAUAUUACGCUAA | -3.66 ± 0.25 | -2.1 ± 0.21
